# According to patent publication US10808024B2, “Antibodies against immunocomplexes comprising cyanobacterial cyclic peptide hepatotoxins” (priority 2015, dated 2020):
# Entries after “also recorded” stand apart in the source; their conditions may differ.
# Experiments:
# Format in all cases: binding
# [1] = test system: immunocomplex of CCPH variant and biotinylated anti-Adda mAb; assay: Quantitative lateral flow test with streptavidin up-converting nanoparticles
# [2] = test system: immunocomplex of CCPH variant and biotinylated anti-Adda mAb; assay: Single-step non-competitive TR-IFMA with SA51D1 scFv-AP, toxin standards
# [3] = test system: anti-Adda mAb-MC-LR immunocomplex
# [4] = test system: immunocomplexes of MC-XZ and Nod-R with anti-Adda mAb; assay: Cross-reactivity profile of anti-IC binders by single-step non-competitive assay (FIG. 5); settings: toxin 0.1 to 60 μg/L
# [5] = test system: immunocomplexes of CCPH variants and anti-Adda mAb; assay: Screening and cross-reactivity studies of anti-IC scFv-AP binders, specificity class
# [6] = test system: CCPH in unknown water samples, immunocomplex with anti-Adda mAb; assay: Anti-IC immunoassay profiling of blinded water samples (Abraxis proficiency testing); settings: sample MC-TK8, MC-LR + MC-RR + MC-YR, 4 + 1 + 1 μg/l
Molecule,Specificity (cross-reactive pattern) [4],Specificity of anti-IC antibody (CCPH immunocomplexes recognized) [5],other results
"C/C=C1/C(=O)N[C@@H](C(=O)O)[C@H](C)C(=O)N[C@@H](CCCNC(=N)N)C(=O)N[C@@H](/C=C/C(C)=C/[C@H](C)[C@H](Cc2ccccc2)OC)[C@H](C)C(=O)N[C@@H](C(=O)O)CCC(=O)N1C [Nodularin, reference compound]",–,–,Signal-to-background ratio [1]: 38
MC-LA,–,–,Sensitivity [2]: 0.05 µg/L
MC-LR,–,–,Sensitivity (blank+3SD) [3]: below 0.3 μg/L
"SA55D1: MC-LZ subgroup-specific anti-IC binder (antibody, V domains shown, Clone SA55D1; DOMAIN (31)..(35) CDR1; DOMAIN (50)..(66) CDR2; DOMAIN (99)..(110) CDR3; DOMAIN (24)..(35) CDR1; DOMAIN (51)..(57) CDR2; DOMAIN (90)..(98) CDR3) VH: EVQLLESGGGLVQPGGSLRLSCAASGFTFSSDVMHWVRQAPGKGLEWVSVISPYDGYTRYADSVKGRFTISRDNSKNTLYLQMNSLRAEDTAVYYCARHKGGYRRAYMDYWGQGTLVTVSS VL: EIVLTQSPGTLSLSPGERATLSCRASQSVSSSALAWYQQKPGQAPRLLIYGASSRATGVPDRFSGSGSGTDFTLTISRLEPEDFAVYYCQQSYSYPWTFGQGTKVEIKRT","specific towards MC-XZ, where X=L (Leu)",MC-LZ subgroup-specific,–
"SA56B8: variant-specific anti-IC antibody, MC-LR (antibody, V domains shown, Clone SA56B8; DOMAIN (31)..(35) CDR1; DOMAIN (50)..(66) CDR2; DOMAIN (99)..(106) CDR3; DOMAIN (24)..(35) CDR1; DOMAIN (51)..(57) CDR2; DOMAIN (90)..(98) CDR3) VH: EVQLLESGGGLVQPGGSLRLSCAASGFTFSDYWMHWVRQAPGKGLEWVSYINPYGGYTDYADSVKGRFTISRDNSKNTLYLQMNSLRAEDTAVYYCARYVRRHFDYWGQGTLVTVSS VL: EIVLTQSPGTLSLSPGERATLSCRASQSVSSSYLAWYQQKPGQAPRLLIYGASSRATGVPDRFSGSGSGTDFTLTISRLEPEDFAVYYCQQSSSYPWTFGQGTKVEIKRT",MC-LR and MC-dmLR specific,recognize immunocomplexes comprising MC-LR; also recorded: MC-LR specific,Signal (%) with MC-LW ([4]; MC-LW): below 20%
"SA32C11: variant-specific anti-IC antibody, Nod-R (antibody, V domains shown, Clone SA32C11; DOMAIN (31)..(35) CDR1; DOMAIN (50)..(66) CDR2; DOMAIN (99)..(108) CDR3; DOMAIN (24)..(35) CDR1; DOMAIN (51)..(57) CDR2; DOMAIN (90)..(98) CDR3) VH: EVQLLESGGGLVQPGGSLRLSCAASGFTFSDYWMHWVRQAPGKGLEWVSEINTSNGNTYYADSVKGRFTISRDNSKNTLYLQMNSLRAEDTAVYYCARESWWPYSFDYWGQGTLVTVSS VL: EIVLTQSPGTLSLSPGERATLSCRASQSVSSSNLAWYQQKPGQAPRLLIYGASSRATGVPDRFSGSGSGTDFTLTISRLEPEDFAVYYCQQSSSLPWTFGQGTKVEIKRT",specificity only towards Nod-R,recognize immunocomplexes comprising Nod-R; also recorded: nodularin-R specific,Recognition of nine CCPH variants in lateral flow test ([1]; each CCPH at 1 μg/l): Only Nodularin was recognized; Specific anti-IC assay result ([6]; listed as Nod5): not
"SA41B5: variant-specific anti-IC antibody, MC-RR (antibody, V domains shown, Clone SA41B5; DOMAIN (31)..(35) CDR1; DOMAIN (50)..(66) CDR2; DOMAIN (99)..(109) CDR3; DOMAIN (24)..(35) CDR1; DOMAIN (51)..(57) CDR2; DOMAIN (90)..(98) CDR3) VH: EVQLLESGGGLVQPGGSLRLSCAASGFTFSSDVMHWVRQAPGKGLEWVSVINPYDGSTYYADSVKGRFTISRDNSKNTLYLQMNSLRAEDTAVYYCARAVAGQGGYFDYWGQGTLVTVSS VL: EIVLTQSPGTLSLSPGERATLSCRASQSVSSSNLAWYQQKPGQAPRLLIYGASSRATGVPDRFSGSGSGTDFTLTISRLEPEDFAVYYCQQSSSLPWTFGQGTKVEIKRT",–,recognize immunocomplexes comprising MC-RR; also recorded: MC-RR specific,Specific anti-IC assay result [6]: positive
"SA34G1: variant-specific anti-IC antibody, Nod-R (antibody, V domains shown, Clone SA34G1; DOMAIN (31)..(35) CDR1; DOMAIN (50)..(66) CDR2; DOMAIN (99)..(108) CDR3; DOMAIN (24)..(35) CDR1; DOMAIN (51)..(57) CDR2; DOMAIN (90)..(98) CDR3) VH: EVQLLESGGGLVQPGGSLRLSCAASGFTFSDYWMHWVRQAPGKGLEWVSEIIPYSGYTNYADSVKGRFTISRDNSKNTLYLQMNSLRAEDTAVYYCARETWGYPSFDYWGQGTLVTVSS VL: EIVLTQSPGTLSLSPGERATLSCRASQSVSSSNLAWYQQKPGQAPRLLIYGASSRATGVPDRFSGSGSGTDFTLTISRLEPEDFAVYYCQQSSSTPWTFGQGTKVEIKRT",–,recognize immunocomplexes comprising Nod-R,–
"SA32F1: variant-specific anti-IC antibody, Nod-R (antibody, V domains shown, Clone SA32F1; DOMAIN (31)..(35) CDR1; DOMAIN (50)..(66) CDR2; DOMAIN (99)..(110) CDR3; DOMAIN (24)..(35) CDR1; DOMAIN (51)..(57) CDR2; DOMAIN (90)..(98) CDR3) VH: EVQLLESGGGLVQPGGSLRLSCAASGFTFSNYYMHWVRQAPGKGFEWVSSIITNGGETDYADSVKGRFTISRDNSKNTLYLQMNSLRAEDTAVYYCARLPVTRPYYAVFDYWGQGTLVTVSS VL: EIVLTQSPGTLSLSPGERATLSCRASQSVSSSALAWYQQKPGQAPRLLIYGASSRATGVPDRFSGSGSGTDFTLTISRLEPEDFAVYYCQQSSSYPWTFGQGTKVEIKRT",–,recognize immunocomplexes comprising Nod-R,–
"SA58A12: XR subgroup-specific anti-IC antibody (antibody, V domains shown, Clone SA58A12; DOMAIN (31)..(35) CDR1; DOMAIN (50)..(65) CDR2; DOMAIN (98)..(110) CDR3; DOMAIN (24)..(35) CDR1; DOMAIN (51)..(57) CDR2; DOMAIN (90)..(98) CDR3) VH: EVQLLESGGGLVQPGGSLRLSCAASGFTFSNYGMHWVRQAPGKGLEWVSEIWPNNGTTNYADSVKGRFTISRDNSKNTLYLQMNSLRAEDTAVYYCARESGQWWYGVFDYWGQGTLVTVSS VL: EIVLTQSPGTLSLSPGERATLSCRASQSVSSSNLAWYQQKPGQAPRLLIYGASSRATGVPDRFSGSGSGTDFTLTISRLEPEDFAVYYCQQSSSYPWTFGQGTKVEIKRT",specific towards MC-XZ where Z=R (Arg) and also towards Nod-R,specific for a subgroup XR,–
"SA44E11: anti-IC antibody recognizing immunocomplexes comprising MC-RR (antibody, V domains shown, Clone SA44E11; DOMAIN (31)..(35) CDR1; DOMAIN (50)..(66) CDR2; DOMAIN (99)..(105) CDR3; DOMAIN (24)..(35) CDR1; DOMAIN (51)..(57) CDR2; DOMAIN (90)..(98) CDR3) VH: EVQLLESGGGLVQPGGSLRLSCAASGFTFSDYYMHWVRQAPGKGLEWVSEISTYNGYTDYADSVKGRFTISRDNSKNTLYLQMNSLRAEDTAVYYCARGGEPGDDWGQGTLVTVSS VL: EIVLTQSPGTLSLSPGERATLSCRASQSVSSSALAWYQQKPGQAPRLLIYGASSRATGVPDRFSGSGSGTDFTLTISRLEPEDFAVYYCQQYSSLPWTFGQGTKVEIKRT",–,recognize immunocomplexes comprising MC-RR,–
"SA57D4: subgroup-specific anti-IC antibody (antibody, V domains shown, Clone SA57D4; DOMAIN (31)..(35) CDR1; DOMAIN (50)..(66) CDR2; DOMAIN (99)..(106) CDR3; DOMAIN (24)..(35) CDR1; DOMAIN (51)..(57) CDR2; DOMAIN (90)..(98) CDR3) VH: EVQLLESGGGLVQPGGSLRLSCAASGFTFSGYGMHWVRQAPGKGLEWVSAISDLNGSTYYADSVKGRFTISRDNSKNTLYLQMNSLRAEDTAVYYCARNGWGDMDLWGQGTLVTVSS VL: EIVLTQSPGTLSLSPGERATLSCRASQSVSSSALAWYQQKPGQAPRLLIYGASSRATGVPDRFSGSGSGTDFTLTISRLEPEDFAVYYCQQSYSLPWTFGQGTKVEIKRT",–,subgroup-specific,–
